US11723946B2, “Methods for regulating transcription of multiple genes and expression of multiple targets” (CHINA MEDICAL UNIVERSITY, priority 2014, dated 2023)
Like-named read-outs stand apart in the source and are kept apart here.

Key:
[1] = system: Column (IL-1β and TNF signaling pathway genes); settings: Down-regulated, 2.5 mmol/kg daily, 7 days
Experimental: The wild-type FVB mice were divided into the control group and the experimental group, wherein the mice in the experimental group were daily administered with 20 μl peptide-containing solution that contains 2.5 mmol/kg of the present peptide for 7 days. Moreover, the mice in the control group were daily administrated with 20 μl PBS solution for 7 days.
After the daily administration, the tissues of column, muscle, fat pad, liver and kidney were collected for analyzing the expression of multiple targets by system biology analysis. Herein, the altered expressions of the targets in the genome were determined by using DNA microarray which is a well-established tool for systematic biology analysis. Furthermore, the results of the DNA microarray were further categorized and analyzed by bioinformatics analysis to determine the effect and affected signaling pathways of the present polypeptide. Therefore, it can determine the downstream targets of the present polypeptide comprising the amino acid sequence of SEQ ID No. 1 by the mechanism investigation through microarray analysis and gene expression profile. The detail steps including:
(1) RNA preparation: The total RNA was extracted from the tissue by using RNeasy Mini Kit (Qiagen, Valencia, Calif., USA). The amount of the extracted total RNA was measured by Beckman DU800 spectrophotometer (Beckman Coulter, Fullerton, Calif., USA). In the next step, the quality of the RNA sample with A260/A280 ratio more than 1.8 was further evaluated by Agilent 2100 bioanalyzer (Agilent Technologies, Santa Clara, Calif., USA). When with the RNA integrity number of the sample is more than 8.0, it would be analyzed by the following microarray analysis.
(2) DNA microarray analysis: The procedure of DNA microarray analysis was conducted according to the reference (Cheng, 2007). Briefly, 5 μg of total RNA was amplified by in vitro transcription using MessageAmp™ aRNA kit (Ambion). In the following, the fluorescence dye, Cy5, was chemically labeled on the amplified RNA (aRNA). After the labeling, the fluorescence labeled aRNA was hybridized with Whole Genome OneArray™ in hybridization buffer (Phalanx Biotech Group, Taiwan) on cover slide. Following the hybridization reaction at 50° C. over-night, the non-specific binding on the chip was washed by three washing steps. The washed chip was dried by centrifugation and was scanned by Axon 4000 scanner (Molecular Devices, Sunnyvale, Calif., USA) to measure the fluorescence signals. The fluorescence intensity of Cy5 on each spots was further analyzed by genepix 4.1 (Molecular Devices). First, the signals of each spot were adjusted by deducting the intensity of background. In the next step, the spots including the probes of internal controls or the spots with the signal-to-noise ratios less than […] would be removed. The qualified spots were normalized by limma package which is belonged to R console (Smyth, 2005).
(3). Analysis of the functional mechanism and affected signaling pathways by using bioinformatics software: The altered downstream targets, functional mechanisms, affected signaling pathways and the disease relevance were investigated by using the bioinformatics software such as Medical Subject Headings (MeSH, http://www.nlm.nih.gov/mesh/meshhome.html) and BiblioSphere Pathway Edition.

[2] = Fat accumulation in genetic deficient mice with massive abdominal fat; type: in vivo
Experimental: The mice were divided into control group and experimental group. […] In addition, the mice in the control group were peritoneally injections with 100 ul of PBS.
During the treatment period, the body weight and dietary intake of the mice were recorded at the regular time points. After the treatment, the gross views of whole animals were recorded by photographing. In the following, the fat pads of the mice were collected for the measurement of fat pad weight. The histological examination was performed to determine the number and size of the adipocytes in the mice of the both groups. Furthermore, the percentage of body fat was calculated according the formulation: (fat weight/body weight)×100%, and shown in table 4.

[3] = Serological and biochemical analysis in NOD mice; type: in vivo; settings: 20 weeks; for Creatinine in serum: control 0.70 ± 0.05; for BUN: control 40.50 ± 4.54
Experimental: (§1) 23 mice were divided into four groups with different administrations for 20 weeks, wherein 6 mice of the group 1 were control mice that were daily orally administrated with 20 μl of PBS. 6 mice of the group 2 were daily orally administrated with 20 μl of 0.01 umol/kg solution that contained the present polypeptide comprising the amino acid sequence of SEQ ID No. 1. 6 mice of the group 3 were daily orally administered with 20 μl of 0.1 umol/kg solution that contained the present polypeptide comprising the amino acid sequence of SEQ ID No. 1. 5 mice of the group 4 were daily orally administrated with 20 μl of 1 umol/kg solution that contained the present polypeptide comprising the amino acid sequence of SEQ ID No. 1.
(§2) During the administration period, the survival rate, incidence of diabetes and diabetes-induced retinopathy in the each group were measured and shown in table 5. After the administration, the blood samples were collected for serological and biochemical analysis.

[4] = Survival, diabetes incidence and retinopathy in NOD mice; type: in vivo; settings: 20 weeks; for Incidence of diabetes, mice/mice: control 2/6; for Diabetes-induced retinopathy, mice/mice: control 3/6; for Survival rate, mice/mice: control 4/6
Experimental: as §1, §2

[5] = system: Muscle (IGF and adipocytokine signaling pathway genes); settings: 2.5 mmol/kg daily, 7 days
Experimental: (2) DNA microarray analysis: The procedure of DNA microarray analysis was conducted according to the reference (Cheng, 2007). Briefly, 5 μg of total RNA was amplified by in vitro transcription using MessageAmp™ aRNA kit (Ambion). In the following, the fluorescence dye, Cy5, was chemically labeled on the amplified RNA (aRNA). After the labeling, the fluorescence labeled aRNA was hybridized with Whole Genome OneArray™ in hybridization buffer (Phalanx Biotech Group, Taiwan) on cover slide. Following the hybridization reaction at 50° C. over-night, the non-specific binding on the chip was washed by three washing steps. The washed chip was dried by centrifugation and was scanned by Axon 4000 scanner (Molecular Devices, Sunnyvale, Calif., USA) to measure the fluorescence signals. The fluorescence intensity of Cy5 on each spots was further analyzed by genepix 4.1 (Molecular Devices). First, the signals of each spot were adjusted by deducting the intensity of background. In the next step, the spots including the probes of internal controls or the spots with the signal-to-noise ratios less than 0 would be removed. The qualified spots were normalized by limma package which is belonged to R console (Smyth, 2005).

[6] = experimental group vs control group, in words
[7] = Group 2: 0.01 umol/kg daily oral
[8] = Group 3: 0.1 umol/kg daily oral
[9] = Adipocytokine signaling pathway, Down-regulated
[10] = IGF signaling pathway, Up-regulated

B1: present polypeptide: polypeptide comprising the amino acid sequence of SEQ ID No. 1; made by peptide synthesis, recombinant expression or extraction from Momordica charantia (peptide, listed as Artificial synthsis)
chain: SRCQGKSSWPQLVGSTGAAAKAWIERENPRVRAVIIKVGSGATKDFRCDRVRVWVTERGIVARPPTIG
- Fold, Ccl2 ([1]; IL-1β signaling pathway): 1.71 folds
- Fold, Cdh2 ([1]; IL-1β signaling pathway): 1.73 folds
- Fold, Icam1 ([1]; IL-1β signaling pathway): 2.27 folds
- Fold, Pecam1 ([1]; IL-1β signaling pathway): 1.99 folds
- Fold, Tnfrsf11b ([1]; IL-1β signaling pathway): 2.74 folds
- Fold, ADIPOQ ([1]; TNF signaling pathway): 1.78 folds
- Fold, Bcl3 ([1]; TNF signaling pathway): 1.72 folds
- Fold, CD40 ([1]; TNF signaling pathway): 1.79 folds
- Fold, Casp3 ([1]; TNF signaling pathway): 1.71 folds
- Fold, Ikbke ([1]; TNF signaling pathway): 1.95 folds
- Fold, Irs1 ([1]; TNF signaling pathway): 1.73 folds
- Fold, Ltf ([1]; TNF signaling pathway): 1.99 folds
- Fold, Mapk3 ([1]; TNF signaling pathway): 2.32 folds
- Fold, Mapk9 ([1]; TNF signaling pathway): 1.53 folds
- Fold, Rxra ([1]; TNF signaling pathway): 1.89 folds
- Fold, Socs1 ([1]; TNF signaling pathway): 2.46 folds
- Fold, Tnfrsf11b ([1]; TNF signaling pathway): 2.74 folds
- Fat weight ([2]; Experimental mice, 2.5 nmol/kg peritoneal twice a week, 4 weeks, control 2.53 ± 0.19): 1.90 ± 0.41 g
- Body weight at end point ([2]; Experimental mice, 2.5 nmol/kg peritoneal twice a week, 4 weeks, control 71.95 ± 6.25): 72.54 ± 7.24 g
- Body fat ([2]; Experimental mice, (fat weight/body weight)×100%, control 3.68 ± 0.16): 2.74 ± 0.21%
- fat weight compared with control group [2, 6]: obviously decreased
- percentage of body fat compared with control group [2, 6]: obviously decreased
- Creatinine in serum [3, 7]: 0.64 ± 0.12 mg/dL
- BUN [3, 7]: 37.38 ± 2.77 mg/dL
- Creatinine in serum [3, 8]: 0.69 ± 0.06 mg/dL
- BUN [3, 8]: 38.50 ± 4.69 mg/dL
- Creatinine in serum ([3]; Group 4: 1 umol/kg daily oral): 0.69 ± 0.06 mg/dL
- BUN ([3]; Group 4: 1 umol/kg daily oral): 35.88 ± 6.33 mg/dL
- Incidence of diabetes, mice/mice [4, 7]: 0/6
- Diabetes-induced retinopathy, mice/mice [4, 7]: 0/6
- Survival rate, mice/mice [4, 7]: 6/6
- Incidence of diabetes, mice/mice [4, 8]: 0/6
- Diabetes-induced retinopathy, mice/mice [4, 8]: 1/6
- Survival rate, mice/mice [4, 8]: 6/6
- Incidence of diabetes, mice/mice ([4]; Group 4: 1 umol/kg daily oral): 1/5
- Diabetes-induced retinopathy, mice/mice ([4]; Group 4: 1 umol/kg daily oral): 1/5
- Survival rate, mice/mice ([4]; Group 4: 1 umol/kg daily oral): 5/5
- Fold, Acsl1 [5, 9]: 4.56 folds
- Fold, Akt1 [5, 9]: 1.57 folds
- Fold, Cd36 [5, 9]: 2.42 folds
- Fold, Nfkbia [5, 9]: 2.55 folds
- Fold, Prkag1 [5, 9]: 1.93 folds
- Fold, Ptpn11 [5, 9]: 2.31 folds
- Fold, Stat3 [5, 9]: 1.55 folds
- Fold, Adprt1 [5, 10]: Up-regulated 1.9 folds
- Fold, Cabin1 [5, 10]: Up-regulated 2.4 folds
- Fold, Igfbp5 [5, 10]: Up-regulated 1.9 folds
- Fold, Irs1 [5, 10]: Up-regulated 3.7 folds
- Fold, Map2k2 [5, 10]: Up-regulated 1.6 folds
- Fold, Mdk [5, 10]: Up-regulated 3.4 folds
- Fold, Mmp13 [5, 10]: Up-regulated 3.0 folds
- Fold, Myh1 [5, 10]: Up-regulated 3.2 folds
- Fold, Nfatc3 [5, 10]: Up-regulated 1.5 folds
- Fold, Pik3r1 [5, 10]: Up-regulated 1.8 folds
- Fold, Rps6kb1 [5, 10]: Up-regulated 4.7 folds
- Fold, Spp1 [5, 10]: Up-regulated 3.6 folds
- Fold, Twist 1 [5, 10]: Up-regulated 2.1 folds
- Fold, Vegfa [5, 10]: Up-regulated 1.5 folds
